Results on 44 molecules are retold here after US20210388087A1.

Substitutions are numbered along the chain they refer to. Names may count otherwise.

B1: H183/L072 VH S100aP (antibody, name in Kabat numbering, V domains shown)
VH: QVQLVESGGGLVQPGRSLRLSCAASGFTFSNAWMHWVRQAPGKGLEWVAQIKDKGNAYAAYYAPSVKGRFTISRDDSKNSIYLQMNSLKTEDTAVYYCHYVHYASAPTVLPAFGVDAWGQGTTVTVSS
VL: DIVMTQSPLSLPVTPGEPASISCQASQELVHMNRNTYLHWYQQKPGQAPRLLIYKVSNRFPGVPDRFSGSGSGTDFTLKISRVEAEDVGVYYCAQGTSVPFTFGQGTKLEIK
B2: H183/L072 VH A56F (antibody, name in Kabat numbering, V domains shown)
VH: B1 VH with A59F, P107S
VL: B1 VL
B3: H183/L072 VH A57W (antibody, name in Kabat numbering, V domains shown)
VH: B1 VH with A60W, P107S
VL: B1 VL
B4: H183/L072 VH H35W (antibody, name in Kabat numbering, V domains shown)
VH: B1 VH with H35W, P107S
VL: B1 VL
B5: H183/L072 VH Y55W (antibody, name in Kabat numbering, V domains shown)
VH: B1 VH with Y58W, P107S
VL: B1 VL
B6: H183/L072 VH S99P (antibody, name in Kabat numbering, V domains shown)
VH: B1 VH with S105P, P107S
VL: B1 VL
B7: H183/L072 VH V100cP (antibody, name in Kabat numbering, V domains shown)
VH: B1 VH with P107S, V109P
VL: B1 VL
B8: H183/L072 VH N53W (antibody, name in Kabat numbering, V domains shown)
VH: B1 VH with N56W, P107S
VL: B1 VL
B9: H183/L072 VH F100gP (antibody, name in Kabat numbering, V domains shown)
VH: B1 VH with P107S, F113P
VL: B1 VL
B10: H183/L072 VH G100hP (antibody, name in Kabat numbering, V domains shown)
VH: B1 VH with P107S, G114P
VL: B1 VL
B11: H183/L072 VH A102P (antibody, name in Kabat numbering, V domains shown)
VH: B1 VH with P107S, A117P
VL: B1 VL
B12: H183/L072 VH T100bP (antibody, name in Kabat numbering, V domains shown)
VH: B1 VH with P107S, T108P
VL: B1 VL
B13: H183/L072 VH L100dP (antibody, name in Kabat numbering, V domains shown)
VH: B1 VH with P107S, L110P
VL: B1 VL
B14: H183/L072 VH K52W (antibody, name in Kabat numbering, V domains shown)
VH: B1 VH with K52W, P107S
VL: B1 VL
B15: H183/L072 VH D52aW (antibody, name in Kabat numbering, V domains shown)
VH: B1 VH with D53W, P107S
VL: B1 VL
B16: H183/L072 VH I51W (antibody, name in Kabat numbering, V domains shown)
VH: B1 VH with I51W, P107S
VL: B1 VL
B17: H183/L072 VH M34W (antibody, name in Kabat numbering, V domains shown)
VH: B1 VH with M34W, P107S
VL: B1 VL
B18: H183/L072 VH A32W (antibody, name in Kabat numbering, V domains shown)
VH: B1 VH with A32W, P107S
VL: B1 VL
B19: H183/L072 VH V100iP (antibody, name in Kabat numbering, V domains shown)
VH: B1 VH with P107S, V115P
VL: B1 VL
B20: H183/L072 VH D101P (antibody, name in Kabat numbering, V domains shown)
VH: B1 VH with P107S, D116P
VL: B1 VL
B21: H183/L072 VL H27dA (antibody, name in Kabat numbering, V domains shown)
VH: B1 VH with P107S
VL: B1 VL with H31A
B22: H183/L072 VL T31M (antibody, name in Kabat numbering, V domains shown)
VH: B1 VH with P107S
VL: B1 VL with T36M
B23: H183/L072 VL H27dP (antibody, name in Kabat numbering, V domains shown)
VH: B1 VH with P107S
VL: B1 VL with H31P
B24: H183/L072 VL N28P (antibody, name in Kabat numbering, V domains shown)
VH: B1 VH with P107S
VL: B1 VL with N33P
B25: H183/L072 VL N28M (antibody, name in Kabat numbering, V domains shown)
VH: B1 VH with P107S
VL: B1 VL with N33M
B26: H183/L072 VL L33P (antibody, name in Kabat numbering, V domains shown)
VH: B1 VH with P107S
VL: B1 VL with L38P
B27: H183/L072 VL H34I (antibody, name in Kabat numbering, V domains shown)
VH: B1 VH with P107S
VL: B1 VL with H39I
B28: H183/L072 VL Y32M (antibody, name in Kabat numbering, V domains shown)
VH: B1 VH with P107S
VL: B1 VL with Y37M
B29: H183/L072 VL Q27P (antibody, name in Kabat numbering, V domains shown)
VH: B1 VH with P107S
VL: B1 VL with Q27P
B30: H183/L072 VL Y32P (antibody, name in Kabat numbering, V domains shown)
VH: B1 VH with P107S
VL: B1 VL with Y37P
B31: H183/L072 VL Q24P (antibody, name in Kabat numbering, V domains shown)
VH: B1 VH with P107S
VL: B1 VL with Q24P
B32: H183/L072 VL L33I (antibody, name in Kabat numbering, V domains shown)
VH: B1 VH with P107S
VL: B1 VL with L38I
B33: H183/L072 VL N28L (antibody, name in Kabat numbering, V domains shown)
VH: B1 VH with P107S
VL: B1 VL with N33L
B34: H183/L072 VL H27dM (antibody, name in Kabat numbering, V domains shown)
VH: B1 VH with P107S
VL: B1 VL with H31M
B35: H183/L072 VL R29P (antibody, name in Kabat numbering, V domains shown)
VH: B1 VH with P107S
VL: B1 VL with R34P
B36: H183/L072 VL N28I (antibody, name in Kabat numbering, V domains shown)
VH: B1 VH with P107S
VL: B1 VL with N33I
B37: H183/L072 VL T31P (antibody, name in Kabat numbering, V domains shown)
VH: B1 VH with P107S
VL: B1 VL with T36P
B38: H183/L072 VL N30P (antibody, name in Kabat numbering, V domains shown)
VH: B1 VH with P107S
VL: B1 VL with N35P
B39: H183/L072 VL H27dL (antibody, name in Kabat numbering, V domains shown)
VH: B1 VH with P107S
VL: B1 VL with H31L
B40: H183/L072 VL H27dI (antibody, name in Kabat numbering, V domains shown)
VH: B1 VH with P107S
VL: B1 VL with H31I
B41: H183/L072 VL A25L (antibody, name in Kabat numbering, V domains shown)
VH: B1 VH with P107S
VL: B1 VL with A25L
B42: H183/L072 VL H34M (antibody, name in Kabat numbering, V domains shown)
VH: B1 VH with P107S
VL: B1 VL with H39M
B43: H183/L072 VL Y32I (antibody, name in Kabat numbering, V domains shown)
VH: B1 VH with P107S
VL: B1 VL with Y37I
B44: H183/L072 VL V27cP (antibody, name in Kabat numbering, V domains shown)
VH: B1 VH with P107S
VL: B1 VL with V30P

Chain of Human CD137 ECD (human) (chain, as listed by the source limits assumed): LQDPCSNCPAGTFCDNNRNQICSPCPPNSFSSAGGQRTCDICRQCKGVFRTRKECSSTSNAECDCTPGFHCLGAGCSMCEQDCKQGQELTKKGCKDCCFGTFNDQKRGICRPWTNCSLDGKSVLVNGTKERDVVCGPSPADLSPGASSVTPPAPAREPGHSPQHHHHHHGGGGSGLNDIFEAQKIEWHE
Chain of Human CD3eg linker (human) (chain, as listed by the source limits assumed): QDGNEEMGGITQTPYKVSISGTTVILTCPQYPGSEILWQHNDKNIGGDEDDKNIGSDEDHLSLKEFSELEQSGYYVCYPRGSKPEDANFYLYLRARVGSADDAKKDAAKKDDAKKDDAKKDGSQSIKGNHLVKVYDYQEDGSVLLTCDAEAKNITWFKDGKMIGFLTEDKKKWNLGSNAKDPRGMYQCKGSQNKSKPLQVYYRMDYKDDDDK

One assay concerns the target Human CD137 ECD (human). In words: single mutant vs template dBBDu183H.
In the case of B1, the fold change of affinity was 0 fold. Regarding B2, the fold change of affinity is 0 fold.

For the molecule B3, the fold change of affinity came to 0 fold. In the case of B4, the fold change of affinity came out at 0 fold. On the same count and under the same terms, the result for B5 reads 0 fold; that for B6, 0 fold. In the case of B7, the fold change of affinity was 0 fold. As for B8, the fold change of affinity came to 0 fold.

As to B9, the fold change of affinity was 0 fold. Same read-out and setting: the result for B10 reads 0 fold; that for B11, 0 fold. Same read-out and setting: the result for B12 reads 0 fold; that for B13, 0 fold. Consider B14, for which the fold change of affinity came to 0 fold.

On to B15, for which the fold change of affinity amounted to 0 fold. For B16, the fold change of affinity came to 0 fold. As for B17, the fold change of affinity was 0 fold. The same measure, in the same setting: with B18 the figure was 0 fold; with B19, 0 fold; with B20, 0 fold.

A further assay addresses Human CD3eg linker (human). The assay is described as follows: SPR; fold vs parent H183/L072.
For the molecule B21, the fold change of affinity amounted to 0 fold. Take B22: the fold change of affinity stood at 0 fold.

For the molecule B23, the fold change of affinity was 0 fold. Same read-out and setting: with B24 the figure was 0 fold. On the same count and under the same terms, the result for B25 reads 0 fold; that for B26, 0 fold. In the case of B27, the fold change of affinity was determined as 0 fold. Still for that read-out and setting: the result for B28 reads 0 fold; that for B29, 0 fold. The same measure, in the same setting: with B30 the figure was 0 fold; with B31, 0 fold. In the case of B32, the fold change of affinity came to 0 fold. The same measure, in the same setting: the result for B33 reads 0 fold; that for B34, 0 fold; that for B35, 0 fold. Still for that read-out and setting: the result for B36 reads 0 fold; that for B37, 0 fold; that for B38, 0 fold. On the same count and under the same terms, the result for B39 reads 0 fold.

For the molecule B40, the fold change of affinity was 0 fold. Still for that read-out and setting: the result for B41 reads 0 fold. Turning to B42, the fold change of affinity was 0 fold.

For the molecule B43, the fold change of affinity turned out to be 0 fold. Same read-out and setting: with B44 the figure was 0 fold.
